Reference: patent US20240026037A1 (Memorial Sloan Kettering, published 2024)

T1: Human GPA33 on GPA33+ colorectal cancer cell lines (Colo 205, LS 174T, SW 1222) (human, UniProt Q99795 22-319)
T1 construct: Endogenous GPA33 on human colorectal cancer cell lines; also called surface human GPA33; GPA33+ tumor cell lines
T1 sequence: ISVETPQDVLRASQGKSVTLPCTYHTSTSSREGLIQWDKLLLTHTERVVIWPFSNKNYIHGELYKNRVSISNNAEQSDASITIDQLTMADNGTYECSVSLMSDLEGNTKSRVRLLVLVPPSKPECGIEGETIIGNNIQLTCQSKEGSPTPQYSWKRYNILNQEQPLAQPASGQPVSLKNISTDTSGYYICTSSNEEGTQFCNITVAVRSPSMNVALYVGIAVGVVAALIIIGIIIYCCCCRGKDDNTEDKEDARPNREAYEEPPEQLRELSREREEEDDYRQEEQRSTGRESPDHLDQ

T2: Human GPA33 (recombinant protein, Novoprotein) (human, UniProt Q99795 22-235)
T2 construct: Bought recombinant protein immobilized on a CM5 chip; also called GPA33 antigen; tumor antigen GPA33
T2 sequence: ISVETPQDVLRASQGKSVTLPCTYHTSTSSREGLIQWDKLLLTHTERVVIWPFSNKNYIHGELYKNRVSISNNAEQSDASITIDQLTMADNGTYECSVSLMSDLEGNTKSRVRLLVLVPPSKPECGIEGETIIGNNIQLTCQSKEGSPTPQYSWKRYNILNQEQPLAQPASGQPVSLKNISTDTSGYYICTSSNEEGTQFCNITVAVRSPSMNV


How the values were obtained:
[1] = molecular target: T1, Human GPA33 on GPA33+ colorectal cancer …; assay: FACS binding to LS174T cells (GPA33+)
[2] = molecular target: T1, Human GPA33 on GPA33+ colorectal cancer …; assay: FACS binding to SW1222 cells (GPA33+)
[3] = molecular target: T1, Human GPA33 on GPA33+ colorectal cancer …; assay: FACS binding to Colo205 cells (GPA33+)
[4] = molecular target: T1, Human GPA33 on GPA33+ colorectal cancer …; assay: FACS titration on Colo205 cells, geometric mean MFI
[5] = molecular target: T2, Human GPA33 (recombinant protein, …); assay: SPR (Biacore), human GPA33 immobilized on CM5 chip, two-state fit
Experimental: (§1) SPR analysis. Human GPA33 (Novoprotein, Summit, NJ) was immobilized on CM5 chips. Five concentrations of 2-fold serially diluted huA33 IgG1 or huA33-BsAbs (starting at 20 nM) were flowed over the chip using a Biacore™ T100 system (GE Healthcare, Chicago, IL). Binding kinetics of huA33 were measured at 25° C. and binding kinetics of huA33-BsAbs were measured at both 25° C. and 37° C. The sensorgrams were fitted with two state binding model for both to derive kinetic parameters.

[6] = molecular target: T1, Human GPA33 on GPA33+ colorectal cancer …; assay: FACS titration on LS174T cells, geometric mean MFI [Cont.]
[7] = molecular target: T1, Human GPA33 on GPA33+ colorectal cancer …; assay: FACS titration on SW1222 cells, geometric mean MFI [Cont.]
[8] = molecular target: T2, Human GPA33 (recombinant protein, …); assay: SPR (Biacore), human GPA33 immobilized on CM5 chip, two-state fit, ka1
Experimental: as §1

[9] = molecular target: T2, Human GPA33 (recombinant protein, …); assay: SPR (Biacore), human GPA33 immobilized on CM5 chip, two-state fit, kd1
In short: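 The off-rate (kd1) came from surface plasmon resonance, with sensorgrams fitted to a two-state binding model to derive the kinetic parameters. Recombinant human GPA33 from Novoprotein was immobilised on a CM5 chip in a Biacore T100. Antibodies were flowed over at five concentrations, made as 2-fold serial dilutions starting at 20 nM. The parent IgG1 was run at 25° C, and the bispecific formats at both 25° C and 37° C.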

[10] = molecular target: T2, Human GPA33 (recombinant protein, …); assay: SPR (Biacore), human GPA33 immobilised on the chip; KD relative to that of TC170
In short: (§2)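 On a Biacore system, antibodies at five concentrations (2-fold serial dilutions, highest 20 nM) were passed over recombinant human GPA33 (Novoprotein) immobilised on a CM5 sensor chip. Rate constants and the dissociation constant (KD) came from kinetic fitting of the surface plasmon resonance sensorgrams. Each KD is expressed relative to the KD of a reference molecule, as a ratio.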

[11] = molecular target: T1, Human GPA33 on GPA33+ colorectal cancer …; assay: FACS titration on Colo205 cells, geometric mean MFI; remark: listed apart in the source
[12] = molecular target: T1, Human GPA33 on GPA33+ colorectal cancer …; assay: FACS titration on LS174T cells, geometric mean MFI [Cont.]; remark: listed apart in the source
[13] = molecular target: T1, Human GPA33 on GPA33+ colorectal cancer …; assay: FACS titration on SW1222 cells, geometric mean MFI [Cont.]; remark: listed apart in the source
[14] = molecular target: T2, Human GPA33 (recombinant protein, …); assay: SPR (Biacore), human GPA33 immobilised on the chip; reference row
In short: as §2

Binder	EC50 [1]	fold change of binding EC50 (relative to TC170, lower is better) [1]	EC50 [2]	fold change of binding EC50 (relative to TC170, lower is better) [2]	EC50 [3]	fold change of binding EC50 (relative to TC170, lower is better) [3]	EC50 [4]	Kd [5]	ka2 [5]	kd2 [5]	EC50 [6]	EC50 [7]	kon [8]	koff [9]	Fold change of KD (relative to TC170, lower is better) [10]	EC50 [11]	EC50 [12]	EC50 [13]	Fold change of KD (relative to BC015, lower is better) [14]
TC213 (bispecific antibody, pI variant of TC170 with a double mutation in the GPA33 scFv; Carries the p53 SADA (tetramerization) domain; also called GPA33xDOTA SADA; pI variant of TC170) EVQLVESGGGLVDPGGSLRLSCAASGFAFSTYDMSWVRQAPGKGLEWVSTISSGGSYTYYADSVKGRFTISRDNAANSLYLQMNSLRAEDTAVYYCAPTTVVPFAYWGQGTLVTVSAGGGGSGGGGSGGGGSGGGGSGGGGSGGGGSDIQMTQSPSSLSASVGDRVTITCKASQNVRTVVAWYQQKPGKAPKTLIYLASNRHTGVPSRFSGSGSGTEFTLTISNLQPEDFATYYCLQHWSYPLTFGSGTKLEVKRGGGGSGGGGSGGGGSGGGGSHVQLVESGGGLVQPGGSLRLSCAASGFSLTDYGVHWVRQAPGKGLEWLGVIWSGGGTAYNTALISRFTISRDNSKNTLYLQMNSLRAEDTAVYYCARRGSYPYNYFDAWGCGTLVTVSSGGGGSGGGGSGGGGSGGGGSGGGGSGGGGSQAVVTQEPSLTVSPGGTVTLTCGSSTGAVTASNYANWVQQKPGQCPRGLIGGHNNRPPGVPARFSGSLLGGKAALTLLGAQPEDEAEYYCALWYSDHWVIGGGTKLTVLGTPLGDTTHTSGKPLDGEYFTLQIRGRERFEMFRELNEALELKDAQAGKEPGGSGGAPHHHHHH	0.23 nM	0.74	1.05 nM	0.64	0.55 nM	0.74	0.55 nM	0.0218 nM	0.00636 s⁻¹	0.000611 s⁻¹	0.23 nM	1.05 nM	3.44e+06 M⁻¹ s⁻¹	0.000857 s⁻¹	1.4				
TC235 (bispecific antibody, pI variant of TC170 with a triple mutation in the GPA33 scFv; Carries the p53 SADA (tetramerization) domain; also called GPA33xDOTA SADA; pI variant of TC170) EVQLVESGGGLVDPGGSLRLSCAASGFAFSTYDMSWVRQAPGKGLEWVSTISSGGSYTYYADSVKGRFTISRDNAANSLYLQMNSLRAEDTAVYYCAPTTVVPFAYWGQGTLVTVSAGGGGSGGGGSGGGGSGGGGSGGGGSGGGGSDIQMTQSPSSLSASVGDRVTITCKASQNVRTVVAWYQQKPGQAPKTLIYLASNRHTGVPSRFSGSGSGTEFTLTISNLQPEDFATYYCLQHWSYPLTFGSGTKLEVKRGGGGSGGGGSGGGGSGGGGSHVQLVESGGGLVQPGGSLRLSCAASGFSLTDYGVHWVRQAPGKGLEWLGVIWSGGGTAYNTALISRFTISRDNSKNTLYLQMNSLRAEDTAVYYCARRGSYPYNYFDAWGCGTLVTVSSGGGGSGGGGSGGGGSGGGGSGGGGSGGGGSQAVVTQEPSLTVSPGGTVTLTCGSSTGAVTASNYANWVQQKPGQCPRGLIGGHNNRPPGVPARFSGSLLGGKAALTLLGAQPEDEAEYYCALWYSDHWVIGGGTKLTVLGTPLGDTTHTSGKPLDGEYFTLQIRGRERFEMFRELNEALELKDAQAGKEPGGSGGAPHHHHHH	0.22 nM	0.71	1.03 nM	0.62	0.53 nM	0.72	0.53 nM	0.0242 nM	0.00561 s⁻¹	0.00051 s⁻¹	0.22 nM	1.03 nM	3.38e+06 M⁻¹ s⁻¹	0.000981 s⁻¹	1.5				
BC015 (G3A H1L4) (bispecific antibody, human IgG1, kappa, N297A, GPA33xDOTA IgG-[L]-scFv with human IgG1 constant region carrying N297A and K322A; The anti-DOTA scFv is fused to the C-terminus of the light chain; also called BC177; GPA33 BsAb-IgG (BC177)) heavy: not shown light: DIQMTQSPSSLSASVGDRVTITCKASQNVRTVVAWYQQKPGKAPKTLIYLASNRHTGVPSRFSGSGSGTEFTLTISNLQPEDFATYYCLQHWSYPLTFGSGTKLEVKRTVAAPSVFIFPPSDEQLKSGTASVVCLLNNFYPREAKVQWKVDNALQSGNSQEKSVTEQDSKDSTYSLSSTLTLSKADYEKHKVYACEVTHQGLSSPVTKSFNRGECTSGGGGSGGGGSGGGGSHVQLVESGGGLVQPGGSLRLSCAASGFSLTDYGVHWVRQAPGKGLEWLGVIWSGGGTAYNTALISRFTISRDNSKNTLYLQMNSLRAEDTAVYYCARRGSYPYNYFDAWGCGTLVTVSSGGGGSGGGGSGGGGSGGGGSGGGGSGGGGSQAVVTQEPSLTVSPGGTVTLTCGSSTGAVTASNYANWVQQKPGQCPRGLIGGHNNRPPGVPARFSGSLLGGKAALTLLGAQPEDEAEYYCALWYSDHWVIGGGTKLTVLG								0.118 nM	0.00307 s⁻¹	0.00177 s⁻¹			4.36e+06 M⁻¹ s⁻¹	0.00141 s⁻¹		1.04 nM	0.39 nM	0.71 nM	1
